According to patent US20150210756A1 (NEW YORK UNIVERSITY, published 2015):

B1: mAb 5133 A6 (Construct 3, CR5133 A6) (antibody)
heavy: not shown
light: EIVLTQSPATLSLSPGERATLSCRASQSVSGYLGWYQQKPGQAPRLLIYGASSRATGIPDRFSGSGSGTDFTLTISRLEPEDFAVYYCQQYGSSPLTFGGGTKLEIKRTVAAPSVFIFPPSDEQLKSGTASVVCLLNNFYPREAKVQWKVDNALQSGNSQESVTEQDSKDSTYSLSSTLTLSKADYEKHKVYACEVTHQGLSSPVTKSFNRGEC
B2: mAb 5133 PRASA A6 (Construct 4, CR5133 PRASA A6) (antibody)
heavy: EVQLVETGGGLVKPGGSLRLSCSASRFSFRDYYMTWIRQAPGKGPEWVSHISGSGSTIYYADSVRGRFTISRDNAKSSLYLQMDSLQADDTAVYYCARGGRATSYYWVHWGPGTLVTVSSASTKGPSVFPLAPSSKSTSGGTAALGCLVKDYFPEPVTVSWNSGALTSGVHTFPAVLQSSGLYSLSSVVTVPSSSLGTQTYICNVNHKPSNTKVDKKVEPKSCDKTHTCPPCPAPPVAGPDVFLFPPKPKDTLMISRTPEVTCVVVDVSHEDPEVKFNWYVDGVEVHNAKTKPREEQYNSTYRVVSVLTVLHQDWLNGKEYKCKVSNAALPAPIAKTISKAKGQPREPQVYTLPPSRDELTKNQVSLTCLVKGFYPSDIAVEWESNGQPENNYKTTPPVLDSDGSFFLYSKLTVDKSRWQQGNVFSCSVMHEALHNRFTQKSLSLSPGK
light: B1 light
notes: also called PRASA A6 parental mAb
B3: pagibaximab (antibody, V domains shown)
VH: EVMLVESGGGLVQPKGSLKLSCAASGFTFNNYAMNWVRQAPGKGLEWVARIRSKSNNYATFYADSVKDRFTISRDDSQSMLYLQMNNLKTEDTAMYYCVRRGASGIDYAMDYWGQGTSLTVSS
VL: DIVLSQSPAILSASPGEKVTMTCRASSSVNYMHWYQQKPGSSPKPWISATSNLASGVPARFSGSGSGTSYSLTISRVEAEDAATYYCQQWSSNPPTFGGGTMLEIKR
notes: also called anti-LTA mAb

Columns and labels:
human FcγRI = human FcγRI (human, UniProt P12314 16-288); assay: AlphaScreen competition against biotinylated IgG1
Chain of human FcγRI (P12314 16-288 limits assumed): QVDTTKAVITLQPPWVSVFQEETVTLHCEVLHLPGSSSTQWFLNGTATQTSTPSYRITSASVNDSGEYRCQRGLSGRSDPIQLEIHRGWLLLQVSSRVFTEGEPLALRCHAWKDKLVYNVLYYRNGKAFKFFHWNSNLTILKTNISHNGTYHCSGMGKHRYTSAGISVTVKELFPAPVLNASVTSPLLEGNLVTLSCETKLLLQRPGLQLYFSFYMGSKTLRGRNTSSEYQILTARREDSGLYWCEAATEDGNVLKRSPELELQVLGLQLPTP

human FcγRIIIa (V158) = human FcγRIIIa (V158) (human, UniProt P08637 17-208); assay: AlphaScreen competition against biotinylated IgG1
Chain of human FcγRIIIa (V158) (P08637 17-208 F176V limits assumed): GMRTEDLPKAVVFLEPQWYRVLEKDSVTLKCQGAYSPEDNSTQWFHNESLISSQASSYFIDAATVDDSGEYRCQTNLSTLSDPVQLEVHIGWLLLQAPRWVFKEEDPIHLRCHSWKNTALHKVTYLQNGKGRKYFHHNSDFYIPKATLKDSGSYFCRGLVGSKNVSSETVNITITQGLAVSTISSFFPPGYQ

Protein A = biological target: T1, Protein A (Staphylococcus aureus, UniProt P38507 37-477); assay: western blot of S. aureus lysates
T1 construct: also called S. aureus Protein A; SpA

[1] = biological target: T2, SdgB-glycosylated recombinant SdrC4 protein (S. aureus, UniProt O86487 51-910); assay: ELISA on coated SdgB-glycosylated SdrC4
T2 construct: also called SdgB-glycosylated SdrC4 protein
T2 sequence (O86487 51-910, tags left off): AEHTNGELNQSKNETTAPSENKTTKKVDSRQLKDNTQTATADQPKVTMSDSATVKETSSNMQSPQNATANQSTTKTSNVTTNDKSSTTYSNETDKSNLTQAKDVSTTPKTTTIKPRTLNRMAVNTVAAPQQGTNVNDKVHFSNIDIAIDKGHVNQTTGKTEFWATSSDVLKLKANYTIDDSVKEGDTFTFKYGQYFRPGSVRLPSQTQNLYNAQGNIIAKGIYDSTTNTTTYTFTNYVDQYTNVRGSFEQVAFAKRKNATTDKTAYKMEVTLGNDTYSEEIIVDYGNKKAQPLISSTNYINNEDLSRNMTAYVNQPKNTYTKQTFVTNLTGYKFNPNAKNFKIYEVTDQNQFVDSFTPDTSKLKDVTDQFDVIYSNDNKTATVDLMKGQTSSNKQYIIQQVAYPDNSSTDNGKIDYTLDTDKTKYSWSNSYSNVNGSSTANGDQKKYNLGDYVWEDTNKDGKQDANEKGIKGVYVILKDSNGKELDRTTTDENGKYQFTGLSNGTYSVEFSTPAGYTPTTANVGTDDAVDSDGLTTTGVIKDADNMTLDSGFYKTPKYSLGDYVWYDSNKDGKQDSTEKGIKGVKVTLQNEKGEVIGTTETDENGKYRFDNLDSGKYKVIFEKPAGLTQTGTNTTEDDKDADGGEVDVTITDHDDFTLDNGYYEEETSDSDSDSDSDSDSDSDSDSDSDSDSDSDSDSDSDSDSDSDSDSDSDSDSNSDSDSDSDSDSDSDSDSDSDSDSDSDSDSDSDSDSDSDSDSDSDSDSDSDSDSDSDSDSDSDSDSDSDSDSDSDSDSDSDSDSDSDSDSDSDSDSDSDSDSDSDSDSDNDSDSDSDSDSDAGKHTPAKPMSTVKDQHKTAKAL

Binder | binding result (human FcγRI) | binding result (human FcγRIIIa (V158)) | binding result (Protein A) | binding result [1]
B1 | binds | binds | no binding (tested: 2 µg/mL) | –
B2 | no binding | binds | no binding (tested: 2 µg/mL) | –
B3 | – | – | – | no binding (tested: starting at 10 µg/mL)
